assay: soluble on expression in E. coli; label from the status in PepcDB or PDB records

Sequence	soluble on expression in E. coli
MYRTPAAIVADATVGIPLVRFVTEEMEMTPELVALYTSHRSVWELLEGELKSLGLNPKVVYGTDVYKTRKSLQEVRPRVVFGSTIERHASEGLPVAYVVEVVRMMRQFRMINREYFGYTGILNLLECVQNEWVMGWRSKELEHHHHHH	not soluble
MYTNSDFVVIKALEDGVNVIGLTRGADTRFHHSEKLDKGEVLIAQFTEHTSAIKVRGKAYIQTRHGVIESEGKKAAAAAAA	soluble
MYVAVKGGEKAIDNAHRLLARKRRGDTALPELSVEQIRQQMPLAVSRVMTEGSLYDEQLAALAIKQAAGDLMEAIFLLRAYRTTLPRFAASLPLDTAGMRLQRRISATYKDLPGGQLLGPTFDYTHRLLDFSLLAEGDYPGPEVERGASLEPCPRVLGLLDREGLMTPEYELPGAVPDITREPLDFPTGRAQRLQALARGDEGFLLALGYSTQRGYGRNHPFAGEIRIGACEVWLEPEELGFAVPVGEIEVTECEMVNQFVGSREELPQFTRGYGLAFGYAERKAMGMALVDRALRAEEYGEEVVSPAQQEEFVLMHCDNVEAGGFVSHLKLPHYVDFQSELELIRKLRRPGVAESAQPTVQEKRA	not soluble
MYYERPVFDIVDTWEIREREVLKPVLSVAEEDYCYFVQNTVASAQRSWVDLVANLFNSPDSDIDDALNRFADAPCLHGPTLEPMNLILKGSPMYVYCSFEEMRSCATKRFYEGISNRGVVICTVPPYAEGVTRDDMSVWQNQACVNTCSGKNDLDAYIAFLPTSSLQESSYWHTKNGIYSFLAPSQTDAFCCEILCVGRALFEDRSRKEKLRNCLLKLLNYRLKLLFAAALEHHHHHH	not soluble
NAAQALVNVQTSVIPKTAFAARDFVDYSFPQEQKDKEKRKQQWVKNSHTKNSDVQPFAEFAILEIPLFSKSKVDRKIFNHFIQPAIRTYKQLGDSLNIFANPTLDQLKQNRYYVLGYPFLKNKVSSLFLNQTGKKKGIFRRKYTNIPWKTSYYLN	not soluble
NCCVKGNSIYPQKTSTKQTGLMLDIARHFYSPEVIKSFIDTISLSGGNFLHLHFSDHENYAIESHLLNQRAENAVQGKDGIYINPYTGKPFLSYRQLDDIKAYAKAKGIELIPELDSPNHMTAIFKLVQKDRGVKYLQGLKSRQVDDEIDITNADSITFMQSLMSEVIDIFGDTSQHFHIGGDEFGYSVESNHEFITYANKLSYFLEKKGLKTRMWNDGLIKNTFEQINPNIEITYWSYDGDTQDKNEAAERRDMRVSLPELLAKGFTVLNYNSYYLYIVPKASPTFSQDAAFAAKDVIKNWDLGVWDGRNTKNRVQNTHEIAGAALSIWGEDAKALKDETIQKNTKSLLEAVIHKTNGDEHHHHHH	soluble
NDSPFYVNPNMSSAEWVRNNPNDPRTPVIRDRIASVPQGTWFAHHNPGQITGQVDALMSAAQAAGKIPILVVSNAPGRDCGNHSSGGAPSHSAYRSWIDEFAAGLKNRPAYIIVEPDLISLMSSCMQHVQQEVLETMAYAGKALKAGSSQARIYFDAGHSAWHSPAQMASWLQQADISNSAHGIATNTSNYRWTADEVAYAKAVLSAIGNPSLRAVIDTSRNGNGPAGNEWCDPSGRAIGTPSTTNTGDPMIDAFLWIKLPGEADGCIAGAGQFVPQAAYEMAIAA	soluble
NFVAPQDRIATFDNDGTLWSEKPMYFQILFMLDQIKEQAASHPDWKTTKPYSLVLSGQIDKLSLEDVLTMVQKTHSGMSSDEFTSIVQAWISTAKHPATGRPYTDMVYQPMLELLDYLDSNGFKNFIVSGGGNAFMRAWATDVYNIPSERIIGTRLSTEFVNVDGSYQVKRVPGIEVNNDKAEKPQQIYQHIGKRPIASFGNSDGDLQMLQWTTSGT	not soluble
NGSKTDLGLLSKNSADFLGSSKRSLAGFDTPFSPDNLQYLEKETDYDQNFKSFTEKFKDEKITNNQLGIVDIYNLFSGFHKSVKSTVDLMNQLQKQVEAANAIFPVDDAFVKLPKVPTELFKLVDDNVFPKLNPKGLNISDNIAALFERYNLKSIELKNFDLAFLRKADVIIKDKVRYNFEM	not soluble
NIDLDIHARENIANITNAMIELVSQDCHWLKVWFEWSASTRDEVWPLFVSTNRTNQLLVQNMFIKAIERGEVCDQHDSEHLANLFHGICYSLFVQANRFKGEAELKELVSAYLDMLCIYNREH	not soluble
NIKNILSERVSAAMVAAGLPEGTNPAISLSNRPQFGDYQANGVMGAAKKLKTNPRELATKVVAELDLDGIASKIELAGPGFINIHLDESWLAAQLNEVAQDDFIGVAQRGTT	not soluble
NLVNFHRMIKLTTGKEAALSYGFYGCHCGVGGRGSPKDATDRCCVTHDCCYKRLEKRGCGTKFLSYKFSNSGSRITCAKQDSCRSQLCECDKAAATCFARNKTTYNKKYQYYSNKHCRGSTPRC	soluble
NRFIGYIQVACCCLLLCASCVRDGMDEDCNSYVRFVYDYNLEYIDLFHKQATKMNLYVFDEKGVFVTELKEESGAFAPDYLMTLPGAMAGRRYIFVAWSGLYGESYDKVTLTPGVSTLEDLEVSVNNLKTRIGGGVVDRELHLLWHGKQTEVSPQYNNDITTVSLLKNTKKFRIIMQMLDDSSIHVDDYDFRIISPNGRYNHENGLLGDETDEKVEYTAYHTEDDPETGAIAELNTLRLMTDTENRLVITHKSSGNVILDIPLNKYLNALRLQQYADIPLQEYLDRADKHGIILFFKGMDGNGNYISVDVQINGWLIRKQEVD	not soluble
NVAGEEAVREYKKGDEISAVVLAVDAERERISLGIKQMENDPFNAYVADNKKGTLVNATVTAVDAKGATVEIAEGVEGYIRASEVSRDRVEDASLILSAGDVVEAKFTGVDRKNRVINLSIKAKDEAEEQEAMASINKQDEAAFGNAMADAFKAAKGE	not soluble
NVRVITDENWRELLEGDWMIEFYAPWCPACQNLQPEWESFAEWGEDLEVNIAKVDVTEQPGLSGRFIINALPTIYHCKDGEFRRYQGPRTKKDFINFISDKEWKSIEPVSSWF	soluble
PAFALTSPWAGSDAAAIPDHGTVCKGQWQGQEVLGMRVTWDKRYITLAPVCTLLGLAFRLYDPDGLLGGRKDLGITCALVPHDHPGVDTGRRHFPLNAMFMNGPTRGTDVFMPLEFIIDG	not soluble
PAQDNSRFVIRDRNWHPKALTPDYKTSIARSPRQALVSIPQSISETTGPNFSHLGFGAHDHDLLLNFNNGGLPIGERIIVAGRVVDQYGKPVPNTLVEMWQANAGGRHRHKNDRYLAPLDPNFGGVGRCLTDSDGYYSFRTIKPGPYPWRNGPNDWRPAHIHFGISGPSIATKLITQLYFEGDPLIPMCPIVKSIANPEAVQQLIAKLDMNNANPMDCLAYRFDIVLRGQRKTHFENC	soluble
PARLSTADKYTENPVSGVMAQLYSARSKNSWGMGDFNDLGLLAETLAPQADYLLINPLHAAEPMPPVEDSPYLPTTRRFINPIYIRIEDIPEHLLLDDDLQNDIAELAEKFTALNLTPEKIERNPIFDAKLQVLHAVFNVEREPAREQDFQDFIATEGQGLRDFASWCADQELAVLESSAAHAALPEKESLIQFYMWQQWICDQQLGAAQTRATD	not soluble
PETKTGKKILLAAPRGYCAGVDRAVETVERALEEYGAPIYVRKEIVHNRYVVDTLAEKGAIFVNEASEAPEGANMVFSAHGVSPMVHEEAAAKNIKAIDAACPLVTKVHKEVQRFDKQGFHILFIGHEGHEEVEGTMGHSVEKTHLVDGVAGIATLPEFLNDEPNLIWLSQTTLSVDETMEIVRELKVKFPQLQDPPSDDICYATQNRQVAVKAIAERCELMIVVGSRNSSNSVRLVEVAKQNGADNAYLVDYAREIDPAWFEGVETIGISSGASVPEILVQGVIERLAEFGYD	not soluble
PETVCWGHVEEVELINDGSGLGFGIVGGKTSGVVVRTIVPGGLADRDGRLQTGDHILKIGGTNVQGMTSEQVAQVLRNCGNSVRMLVARDPAGDISVT	soluble
PFEIVFEGAKEFAQLIDTASKLIDEAAFKVTEDGISMRAMDPSRVVLIDLNLPSSIFSKYEVVEPETIGVNLDHLKKILKRGKAKDTLILKKGEENFLEITIQGTATRTFRVPLIDVEEMEVDLPELPFTAKVVVLGEVLKAAVKAASLVSDSIKFIARENEFIMKAEGETQEVEIKLTLEDEGLLDIEVQEETKSAYGVSYLSDMVKGLGKADEVTIKFGNEMPMQMEYYIRDEGRLTFLLAPRVEE	soluble
PFKEVSPNSFLLDDSHALSQLLKKSYRWYSPVFSPRNVPRFADVSSITESPETLKAIRDFLVQRYRAMSPAPTHILGFDARGFLFGPMIAVELEIPFVLMRKADKNAGLLIRSEPYEKEYKEAAPEVMTIRYGSIGKGSRVVLIDDVLATGGTALSGLQLVEASDAVVVEMVSILSIPFLKAAEKIHSTANSRYKDIKFISLLSDDALTEENCGDSKNYTGPRVLSCGDVLAEHPH	soluble
PHMSGLKKFFPYSTNVLKGAAADIALPSLAGKTVFFYFSASWCPPCRAFTPQLIDFYKAHAESKNFEVMLISWDESAEDFKDYYAKMPWLALPFEDRKGMEFLTTGFDVKSIPTLVGVEADSGNIITTQARTMVVKDPEAKDFPWPNVEAKK	soluble
PIGKSADNMYSYLALVQDDPTVQVVNMAQKAYVEHYIQGDPDLAKLPVLSAAAPFKVGGRKNDPASFVEVEKGQLTFRNAADLYLYPNTLVVMKVSGKEVKEWLECSAGQFNQIDPASSKPQSLINWDGFRTYNFDVIDGVNYQIDVTQPARYDGECQMIHPQAERIKHLTFNGKPVDPQATFLVATNNYRAYGGKFAGTGESHIAFASPDENRSVLAAWIGAQSKKEGAIHPAADNNWRLAPI	not soluble
PITNGHLDLIERAAQMFDEVIIAVAASPSKNTLFTLEERVEFARQVTSHLDNVSAKGFSGLLVDFAKAEKANVLIRGLRTTVDFEYEFGLTNMYRRLMPGLESVFLTPAEEHAFISSTLVREVAIHGGNVDEFVPAIVANALHQKKKI	not soluble
PKHGKRYRALLEKVDPNKIYTIDEAAHLVKELATAKFDETVEVHAKLGIDPRRSDQNVRGTVSLPHGLGKQVRVLAIAKGEKIKEAEEAGADYVGGEEIIQKILDGWMDFDAVVATPDVMGAVGSKLGRILGPRGLLPNPKAGTVGFNIGEIIREIKAGRIEFRNDKTGAIHAPVGKASFPPEKLADNIRAFIRALEAHKPEGAKGTFLRSVYVTTTMGPSVRINPHS	soluble
PKPPIDLVVTETTATSVTLTWDSGNSEPVTYYGIQYRAAGTEGPFQEVDGVATTRYSIGGLSPFSEYAFRVLAVNSIGRGPPSEAVRARTGEQ	soluble
PLYLGLMSGTSIDGIDAALVRINANPITHCELIAAQTSAWDPNLRTTLLELSQGQNTASLDQLGWLDAQVGLAFATAANTLIAKTGIKHTQIRAIGSHGQTIRHRPHGDLPFTWQLGDAHRIAELTGITTVADFRRRDVAAGGQGAPLMPAFHLAILGSANENRAVLNLGGIANLTLIPMTGPVLGFDTGPANALLDSWYQRHHHETFDQSGNFAASGKINQKLLACLLDDPWFTLPPPKSTGREQFHLDWMTKQLEPTPPSPADVQATLLELTAVTVADALLRQQPKTTRLLICGGGAHNPVLMARLATHLPNVTVESIQTYGLNPDYLEAMGFAWLAAQTLDGQPSNLPSVTGARGLRLLGAIHPA	not soluble
PMILGYWNVRGLTHPIRLLLEYTDSSYEEKRYAMGDAPDYDRSQWLNEKFKLGLDFPNLPYLIDGSRKITQSNAIMRYLARKHHLCGETEEERIRADIVENQVMDNRMQLIMLCFNPDFEKQKPEFLKTIPEKMKLYSEFLGKRPWFAGDKVTYVDFLAYDILDQYHIFEPKCLDAFPNLKDFLARFEGLKKISAYMKSSRYLSTPIFSKLAQWSNK	soluble

— the DeepSol protein solubility set
